Experimental data: patent publication US12643926B2, “LysM receptor motifs” (Aarhus Universitet, priority 2020, dated 2026)

Test: Biolayer interferometry of LYS11 ectodomains binding to CO5
Settings: BLI; result in words
Method: Binding of L. japonicus LYS11 ectodomain and domain-swapped versions of L. japonicus LYS11 ectodomain to ligands was measured on an Octet RED 96 system (Pall ForteBio). The ligands used were CO5 chitin oligomer (corresponding to the backbone of S. meliloti Nod factor LCO-V), M. loti Nod factor LCO, and S. meliloti Nod factor LCO. S. meliloti LCO consists of a tetrameric/pentameric N-acetylglucosamine backbone that is O-sulfated on the reducing terminal residue, O-acetylated on the non-reducing terminal residue, and mono-N-acylated by unsaturated C16 acyl groups. M. loti LCO is a pentameric N-acetylglucosamine with a cis-vaccenic acid and a carbamoyl group at the non-reducing terminal residue together with a 2,4-O-acetylfucose at the reducing terminal residue. Biotinylated ligand conjugates were immobilized on streptavidin biosensors (kinetic quality, Pall ForteBio) at a concentration of 125-250 nM for 5 minutes. Data analysis was performed in GraphPad Prism 6 software (GraphPad Software, Inc.). Equilibrium dissociation constants derived from the steady-state were determined by applying a non-linear regression (one site, specific binding) to the response at equilibrium plotted against the protein concentration. Kinetic parameters were determined by non-linear regression (association followed by dissociation) on the subtracted data. […]

B1: L. japonicus LYS11 ectodomain: L. japonicus LYS11 ectodomain (residues 26-234 of SEQ ID NO: 255), 6xHis tag, insect cell expressed (protein)
chain: LAQLSHTNGTNFSCPVDSPPSCDTYVTYFAQSPNFLTLTSISDLFDTSPLSIARASNIKDENQNLVPGQLLLVPVTCACSGSNSFSNISHMIKEGESYYYLSTTSYENLTNWETVQDSNPNYNPYLLPVGIKVVIPLFCKCPSNYHLNKGIEYLITYVWHNNDNVSLVASKFGVSTQDIISENNFSHQNFTAATNFPILIPVTQLPSLS
modifications: 6xHis tag; Xaa = hydrophobic patch residues; Xaa = residues immediately adjacent to hydrophobic patch residues
binding to CO5 (chitin): able to bind CO5
